Reference: paper PMC9496334, “In Silico Maturation of a Nanomolar Antibody against the Human CXCR2” (Biomolecules, 2022)

T1: Biotin-labeled human CXCR2 N-terminal extracellular peptide (pepN48) (Homo sapiens, UniProt P25025, biotin label (position not given))
T1 construct: CXC chemokine receptor 2 (CXCR2, interleukin 8 receptor beta), human, the first 48 residues of the protein; Held on the streptavidin chip by its biotin; also called N-terminal peptide; peptide of extracellular N-terminal domain of human CXCR2
T1 chain: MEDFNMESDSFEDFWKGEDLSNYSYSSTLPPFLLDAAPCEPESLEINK


Assays:
[1] = target: T1, Biotin-labeled human CXCR2 N-terminal …; experiment: SPR; biotin-labeled pepN48 immobilised on a streptavidin Series S Sensor Chip SA; Biacore T200; IgG1 antibodies injected as analytes in HBS-EP+ buffer pH 7.4; kinetics fitted globally; conditions: both partners purified
[2] = target: T1, Biotin-labeled human CXCR2 N-terminal …; experiment: as above; conditions: both partners purified

Binder | Kd [1] [nM] | also measured
abN48 (antibody, V domains shown, VH of abN48; constant region of the human IgG1 heavy chain, from the pFuse heavy-chain vector; VL of abN48, the same for all studied antibodies; light-chain constant region of the pFuse light-chain vector pfuse2ss-hcll2; Full-length IgG1 in the experiments; the crystal structure 6KVF holds the Fab; also called abN48 antibody; source: 293F cells, co-transfected, purified from the medium (HiTrap …)) VH: QVQLVQSGAEVKKPGSSVKVSCKASGGTLSSYAISWVRQAPGQGPEWMGWINPNSGGTNYAQKFQGRVTMTRDTSISTAYMELSRLRPDDTAVYYCASGYCSSTSCYDYWGQGTLVTVSS VL: QAVLTQPSSLSASPGASVSLTCTLRSGINVGAYRIYWYQQKPGSPPQFLLRYKSDSDKQQGSGVPSRFSGSRDASANAGILLISGLRSEDEADYYCAIWHSSAWVFGGGTQLTVL | 1.3 | 
abN48-1 (antibody, V domains shown, parent VH in PDB 6KVF; constant region of the human IgG1 heavy chain, from the pFuse heavy-chain vector; as the VL of the light chain of m1; light-chain constant region of the pFuse light-chain vector pfuse2ss-hcll2; Full-length IgG1; source: 293F cells, co-transfected, purified from the medium (HiTrap Protein A)) VH: QVQLVQSGAEVKKPGSSVKVSCKASGGTLSSYAISWVRQAPGQGPEWMGWINPNSGGTNYAQKFQGRVTMTRDTSISTAYMELSRLRPDDTAVYYCASGFCTRTICFVYWGQGTLVTVSS VL: QAVLTQPSSLSASPGASVSLTCTLRSGINVGAYRIYWYQQKPGSPPQFLLRYKSDSDKQQGSGVPSRFSGSRDASANAGILLISGLRSEDEADYYCAIWHSSAWVFGGGTQLTVL | 0.26 | 
abN48-38 (antibody, V domains shown, parent VH in PDB 6KVF; constant region of the human IgG1 heavy chain, from the pFuse heavy-chain vector; as the VL of the light chain of m1; light-chain constant region of the pFuse light-chain vector pfuse2ss-hcll2; Full-length IgG1; source: 293F cells, co-transfected, purified from the medium (HiTrap Protein A)) VH: QVQLVQSGAEVKKPGSSVKVSCKASGGTLSSYAISWVRQAPGQGPEWMGWINPNSGGTNYAQKFQGRVTMTRDTSISTAYMELSRLRPDDTAVYYCASGYCSRSRCYDYWGQGTLVTVSS VL: QAVLTQPSSLSASPGASVSLTCTLRSGINVGAYRIYWYQQKPGSPPQFLLRYKSDSDKQQGSGVPSRFSGSRDASANAGILLISGLRSEDEADYYCAIWHSSAWVFGGGTQLTVL | 0.23 | 
abN48-28 (antibody, V domains shown, parent VH in PDB 6KVF; constant region of the human IgG1 heavy chain, from the pFuse heavy-chain vector; as the VL of the light chain of m1; light-chain constant region of the pFuse light-chain vector pfuse2ss-hcll2; Full-length IgG1; source: 293F cells, co-transfected, purified from the medium (HiTrap Protein A)) VH: QVQLVQSGAEVKKPGSSVKVSCKASGGTLSSYAISWVRQAPGQGPEWMGWINPNSGGTNYAQKFQGRVTMTRDTSISTAYMELSRLRPDDTAVYYCASGYCSPSGCYVYWGQGTLVTVSS VL: QAVLTQPSSLSASPGASVSLTCTLRSGINVGAYRIYWYQQKPGSPPQFLLRYKSDSDKQQGSGVPSRFSGSRDASANAGILLISGLRSEDEADYYCAIWHSSAWVFGGGTQLTVL | 0.65 | 
abN48-8 (antibody, V domains shown, parent VH in PDB 6KVF; constant region of the human IgG1 heavy chain, from the pFuse heavy-chain vector; as the VL of the light chain of m1; light-chain constant region of the pFuse light-chain vector pfuse2ss-hcll2; Full-length IgG1; source: 293F cells, co-transfected, purified from the medium (HiTrap Protein A)) VH: QVQLVQSGAEVKKPGSSVKVSCKASGGTLSSYAISWVRQAPGQGPEWMGWINPNSGGTNYAQKFQGRVTMTRDTSISTAYMELSRLRPDDTAVYYCASGYCNRTRCYDHWGQGTLVTVSS VL: QAVLTQPSSLSASPGASVSLTCTLRSGINVGAYRIYWYQQKPGSPPQFLLRYKSDSDKQQGSGVPSRFSGSRDASANAGILLISGLRSEDEADYYCAIWHSSAWVFGGGTQLTVL | 0.83 | 
abN48-2 (antibody, V domains shown, VH of abN48-2: as the VH of m1 with two serines of CDR3 changed to arginines; parent VH in PDB 6KVF; constant region of the human IgG1 heavy chain, from the pFuse heavy-chain vector; as the VL of the light chain of m1; light-chain constant region of the pFuse light-chain vector pfuse2ss-hcll2; Full-length IgG1; source: 293F cells, co-transfected, purified from the medium (HiTrap Protein A)) VH: QVQLVQSGAEVKKPGSSVKVSCKASGGTLSSYAISWVRQAPGQGPEWMGWINPNSGGTNYAQKFQGRVTMTRDTSISTAYMELSRLRPDDTAVYYCASGYCSRTRCYDYWGQGTLVTVSS VL: QAVLTQPSSLSASPGASVSLTCTLRSGINVGAYRIYWYQQKPGSPPQFLLRYKSDSDKQQGSGVPSRFSGSRDASANAGILLISGLRSEDEADYYCAIWHSSAWVFGGGTQLTVL |  | Kd [2]: 0.11 nM; koff [2]: 0.00027 s⁻¹; kon [2]: 2.5e+06 M⁻¹ s⁻¹

Second part, led by results:

Kd [1] [nM] | Binder | also measured
2 | abN48-3 (antibody, V domains shown, parent VH in PDB 6KVF; constant region of the human IgG1 heavy chain, from the pFuse heavy-chain vector; as the VL of the light chain of m1; light-chain constant region of the pFuse light-chain vector pfuse2ss-hcll2; Full-length IgG1; source: 293F cells, co-transfected, purified from the medium (HiTrap Protein A)) VH: QVQLVQSGAEVKKPGSSVKVSCKASGGTLSSYAISWVRQAPGQGPEWMGWINPNSGGTNYAQKFQGRVTMTRDTSISTAYMELSRLRPDDTAVYYCASGYCSFAICFDSWGQGTLVTVSS VL: QAVLTQPSSLSASPGASVSLTCTLRSGINVGAYRIYWYQQKPGSPPQFLLRYKSDSDKQQGSGVPSRFSGSRDASANAGILLISGLRSEDEADYYCAIWHSSAWVFGGGTQLTVL | 
0.27 | abN48-10 (antibody, V domains shown, parent VH in PDB 6KVF; constant region of the human IgG1 heavy chain, from the pFuse heavy-chain vector; as the VL of the light chain of m1; light-chain constant region of the pFuse light-chain vector pfuse2ss-hcll2; Full-length IgG1; source: 293F cells, co-transfected, purified from the medium (HiTrap Protein A)) VH: QVQLVQSGAEVKKPGSSVKVSCKASGGTLSSYAISWVRQAPGQGPEWMGWINPNSGGTNYAQKFQGRVTMTRDTSISTAYMELSRLRPDDTAVYYCASGYCSRFNCKDYWGQGTLVTVSS VL: QAVLTQPSSLSASPGASVSLTCTLRSGINVGAYRIYWYQQKPGSPPQFLLRYKSDSDKQQGSGVPSRFSGSRDASANAGILLISGLRSEDEADYYCAIWHSSAWVFGGGTQLTVL | 
0.13 | abN48-29 (antibody, V domains shown, parent VH in PDB 6KVF; constant region of the human IgG1 heavy chain, from the pFuse heavy-chain vector; as the VL of the light chain of m1; light-chain constant region of the pFuse light-chain vector pfuse2ss-hcll2; Full-length IgG1; source: 293F cells, co-transfected, purified from the medium (HiTrap Protein A)) VH: QVQLVQSGAEVKKPGSSVKVSCKASGGTLSSYAISWVRQAPGQGPEWMGWINPNSGGTNYAQKFQGRVTMTRDTSISTAYMELSRLRPDDTAVYYCASGYCGRARCTSFWGQGTLVTVSS VL: QAVLTQPSSLSASPGASVSLTCTLRSGINVGAYRIYWYQQKPGSPPQFLLRYKSDSDKQQGSGVPSRFSGSRDASANAGILLISGLRSEDEADYYCAIWHSSAWVFGGGTQLTVL | 
